Values of other authors as cited in publication PMC4097889.

Legend:
RXRα LBD (Homo sapiens) [1] = target: RXRα LBD (Homo sapiens) (UniProt P19793); assay: circular dichroism
RXRα LBD (Homo sapiens) [2] = target: RXRα LBD (Homo sapiens) (UniProt P19793); assay: ITC

Sequence of UniProt P19793 (P19793 227-458): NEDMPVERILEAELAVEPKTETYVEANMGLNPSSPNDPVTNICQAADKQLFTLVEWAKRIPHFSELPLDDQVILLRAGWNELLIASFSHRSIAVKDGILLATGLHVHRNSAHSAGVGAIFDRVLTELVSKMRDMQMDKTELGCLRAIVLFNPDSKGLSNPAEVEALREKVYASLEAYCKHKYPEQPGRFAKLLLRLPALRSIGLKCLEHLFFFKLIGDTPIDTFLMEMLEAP

Substance: GRIP-1 peptide (from UniProt Q15596)
- Kd (RXRα LBD (Homo sapiens) [1]): 900 nM
- Kd (RXRα LBD (Homo sapiens) [2]): 600 nM
